B1: H3K27me3 peptide (peptide)
chain: LATKAARK(Me3)SAPATGGVKK
B2: PAIPP2-PHD finger (domain or fragment)
chain: VKVCDICGDAGREDLLAICSGCSDGAEHTYCMREMLDEVPEGDWLCEECAEE
B3: unmodified H3K4 peptide (peptide)
chain: ARTKQTARKSTGGKA
modifications: zinc-bound PHD finger; limits from the UniProt ZN_FING feature, construct limits not printed unmodified Lys4; H3 1-15 assumed by convention
B4: AIPP3-BAH domain (residues 112-279) (domain or fragment)
chain: GKGKGKRTHFNQFAYDGNTYDLEVPVLLVPEDKSQKPYVAIIKDITQTKDGSMMILGQWFYRPEEAEKRGGGNWQSSDTRELFYSFHRDEVPAESVMHRCVVYFVPAHKQLPKRKNNPGFIVRKVYDTVEKKLWKLTDKDYEDSKQREIDVLVKKTMNVLGDLPDLES
B5: H3K9me2 peptide (peptide)
chain: ARTKQTARKSTGGKA
modifications: dimethyl-lysine at K9
B6: H3K4me3 peptide (peptide)
chain: ARTK(Me3)QTARKSTGGKA

Common to all, as to test: ITC
In general terms: Isothermal titration calorimetry measures the heat released or taken up as one component is titrated into another.

Assay [1] addresses T1, AIPP3-BAH domain H198A (Arabidopsis, UniProt Q8RXT5 112-279, H198A).
T1 sequence: B4 chain with H87A

Assay [2] addresses T2, AIPP3-BAH domain Y149A (Arabidopsis, UniProt Q8RXT5 112-279, Y149A).
T2 sequence: B4 chain with Y38A

In assay [3] the target is T3, AIPP3-BAH domain W170A (Arabidopsis, UniProt Q8RXT5 112-279, W170A).
T3 sequence: B4 chain with W59A

Assay [4] concerns the target B4.
For assay [5], the target named is T4, AIPP3-BAH domain D200A (Arabidopsis, UniProt Q8RXT5 112-279, D200A).
T4 sequence: B4 chain with D89A

For assay [6], the target named is T5, H3K4me2 (Arabidopsis thaliana).
T5 chain: ARTK(Me2)QTARKSTGGKA

In assay [7] the target is T6, H3K4me1 (Arabidopsis thaliana).
T6 chain: ARTK(Me)QTARKSTGGKA

Assay [8] concerns the target B2.
The target of assay [9] is T7, H3K27me1 (Arabidopsis thaliana, also: biotinylated in pull-down).
T7 chain: LATKAARK(Me)SAPATGGVKK

In assay [10] the target is T8, H3K27me2 (Arabidopsis thaliana, also: biotinylated in pull-down).
T8 chain: LATKAARK(Me2)SAPATGGVKK

Residue numbers refer to the chain shown, from its start. Where no end group is shown, it is not given here. Me3 = trimethyl-lysine; Me2 = dimethyl-lysine

Broadly, the Kd is the concentration at which binding is half-saturated. The low end stands for tighter binding, the high end for weaker binding. As to B1, the Kd in assay [1] came out at 17.4 µM; in assay [2] it was 19.8 µM; in assay [3], 28.5 µM; in assay [4], 7.4 µM; in assay [5] it was 34.1 µM.
In the case of B2, the results for the Kd in [6] and in assay [7] were 30 µM and 22.1 µM, respectively.
Molecule B3 yielded an equilibrium dissociation constant (Kd) in [8] of 18.6 µM.
As to B4, the values for the equilibrium dissociation constant (Kd) in assay [9] and in assay [10] were 24.2 µM and 17.1 µM, respectively.
In assay [4], B5 had an equilibrium dissociation constant (Kd) of 17.3 µM.
The same measure, in the same setting: the same measure for B6: 24.3 µM.

These data come from publication PMC7718874 (2020).
